Experimental data taken from publication PMC9482650, “Quantitative fragmentomics allow affinity mapping of interactomes” (Nature Communications, 2022).

Assays:
Assay in all cases: holdup assay
Design in all cases: key: below the threshold = too weak to quantify, mostly under pKd 3.1 to 4
FRMPD4, Q14CM0 = molecular target: FRMPD4, Q14CM0
GRASP, Q7Z6J2 = molecular target: GRASP, Q7Z6J2
APBA1_2, Q02410 = molecular target: T1, APBA1_2, Q02410
T1 sequence (Q02410 742-832, limits assumed, looked up): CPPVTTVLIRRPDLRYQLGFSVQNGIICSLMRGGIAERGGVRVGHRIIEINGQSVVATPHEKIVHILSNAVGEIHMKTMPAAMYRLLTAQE

DVL3, Q92997 = molecular target: T2, DVL3, Q92997
T2 sequence (Q92997 244-331, limits assumed, looked up): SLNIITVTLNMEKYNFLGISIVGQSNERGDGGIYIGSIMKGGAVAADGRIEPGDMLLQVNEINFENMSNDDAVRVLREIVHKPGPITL

HTRA2, O43464 = molecular target: HTRA2, O43464
NHERF3_4, Q5T2W1 = molecular target: T3, NHERF3_4, Q5T2W1
T3 sequence (Q5T2W1 373-468, limits assumed, looked up): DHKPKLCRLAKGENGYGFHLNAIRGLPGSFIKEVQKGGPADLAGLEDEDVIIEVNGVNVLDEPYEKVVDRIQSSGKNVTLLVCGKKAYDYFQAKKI

Inadl_8, Q8NI35 = molecular target: Inadl_8, Q8NI35
IL16_4, Q14005 = molecular target: IL16_4, Q14005
Inadl_9, Q8NI35 = molecular target: Inadl_9, Q8NI35
Inadl_10, Q8NI35 = molecular target: Inadl_10, Q8NI35
MPP6, Q9NZW5 = molecular target: T4, MPP6, Q9NZW5
T4 sequence (Q9NZW5 125-219, limits assumed, looked up): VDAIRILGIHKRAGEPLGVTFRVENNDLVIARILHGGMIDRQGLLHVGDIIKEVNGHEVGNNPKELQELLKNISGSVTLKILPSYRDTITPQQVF

NHERF3_3, Q5T2W1 = molecular target: T5, NHERF3_3, Q5T2W1
T5 sequence (Q5T2W1 238-333, limits assumed, looked up): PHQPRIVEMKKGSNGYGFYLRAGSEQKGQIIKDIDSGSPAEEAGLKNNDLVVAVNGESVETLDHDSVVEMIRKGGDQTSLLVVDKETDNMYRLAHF

HTRA4, P83105 = molecular target: T6, HTRA4, P83105
T6 sequence (P83105 378-476, limits assumed, looked up): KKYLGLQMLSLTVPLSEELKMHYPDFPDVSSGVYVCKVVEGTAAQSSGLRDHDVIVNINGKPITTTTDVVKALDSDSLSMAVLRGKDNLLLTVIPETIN

DLG2_2, Q15700 = molecular target: DLG2_2, Q15700
NHERF2_2, Q15599 = molecular target: NHERF2_2, Q15599
DLG3_3, Q92796 = molecular target: T7, DLG3_3, Q92796
T7 sequence (Q92796 374-475, limits assumed, looked up): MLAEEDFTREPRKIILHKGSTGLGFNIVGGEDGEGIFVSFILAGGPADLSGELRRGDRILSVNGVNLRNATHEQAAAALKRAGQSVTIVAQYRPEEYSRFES

LAP2, Q96RT1 = molecular target: LAP2, Q96RT1
RHPN1, Q8TCX5 = molecular target: T8, RHPN1, Q8TCX5
T8 sequence (Q8TCX5 508-602, limits assumed, looked up): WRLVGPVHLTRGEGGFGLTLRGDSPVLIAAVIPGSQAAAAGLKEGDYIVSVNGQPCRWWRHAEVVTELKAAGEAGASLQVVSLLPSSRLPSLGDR

PDZD7_3, Q9H5P4 = molecular target: T9, PDZD7_3, Q9H5P4
T9 sequence (Q9H5P4 857-944, limits assumed, looked up): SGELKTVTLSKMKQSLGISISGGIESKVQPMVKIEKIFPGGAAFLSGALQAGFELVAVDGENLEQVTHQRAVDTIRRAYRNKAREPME

CARD11, Q9BXL7 = molecular target: T10, CARD11, Q9BXL7
T10 sequence (Q9BXL7 662-765, limits assumed, looked up): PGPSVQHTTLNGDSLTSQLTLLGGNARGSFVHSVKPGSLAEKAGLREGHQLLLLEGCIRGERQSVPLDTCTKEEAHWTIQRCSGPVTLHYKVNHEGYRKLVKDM

MAGI2_3, Q86UL8 = molecular target: MAGI2_3, Q86UL8
MAGI2_2, Q86UL8 = molecular target: MAGI2_2, Q86UL8
FRMPD1, Q5SYB0 = molecular target: T11, FRMPD1, Q5SYB0
T11 sequence (Q5SYB0 52-145, limits assumed, looked up): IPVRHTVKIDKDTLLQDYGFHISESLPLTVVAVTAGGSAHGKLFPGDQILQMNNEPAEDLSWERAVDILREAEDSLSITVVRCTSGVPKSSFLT

PDZD2_2, O15018 = molecular target: T12, PDZD2_2, O15018
T12 sequence (O15018 329-429, limits assumed, looked up): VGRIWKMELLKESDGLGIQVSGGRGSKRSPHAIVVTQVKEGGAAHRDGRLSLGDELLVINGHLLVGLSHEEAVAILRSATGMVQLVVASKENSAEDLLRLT

PDZRN4_1, Q6ZMN7 = molecular target: PDZRN4_1, Q6ZMN7
NHERF4_2, Q86UT5 = molecular target: NHERF4_2, Q86UT5
[1] = plain residues with an end cap or a label only (N-terminal biotin on a linker: ttds)
[2] = plain residues with an end cap or a label only (N-terminal biotin on a linker: ahx)

Measured: pKd

GRASP, Q7Z6J2, sequence (Q7Z6J2 96-193): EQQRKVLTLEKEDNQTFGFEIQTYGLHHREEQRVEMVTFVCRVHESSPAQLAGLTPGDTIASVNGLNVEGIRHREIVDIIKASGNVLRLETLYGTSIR
MAGI2_3, Q86UL8, sequence (Q86UL8 600-682): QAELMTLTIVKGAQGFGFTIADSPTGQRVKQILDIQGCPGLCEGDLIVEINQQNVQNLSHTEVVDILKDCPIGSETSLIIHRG
Inadl_10, Q8NI35, sequence (Q8NI35 1673-1763): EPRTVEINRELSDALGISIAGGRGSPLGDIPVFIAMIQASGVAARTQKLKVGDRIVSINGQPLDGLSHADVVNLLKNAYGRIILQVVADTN
NHERF4_2, Q86UT5, sequence (Q86UT5 220-308): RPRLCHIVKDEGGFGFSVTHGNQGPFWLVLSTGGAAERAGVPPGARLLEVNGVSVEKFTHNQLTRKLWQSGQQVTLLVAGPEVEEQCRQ
HTRA2, O43464, sequence (O43464 355-458): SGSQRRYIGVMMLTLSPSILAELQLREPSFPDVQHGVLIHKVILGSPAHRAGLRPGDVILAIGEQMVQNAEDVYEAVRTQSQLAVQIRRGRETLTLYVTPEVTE
DLG2_2, Q15700, sequence (Q15700 189-283): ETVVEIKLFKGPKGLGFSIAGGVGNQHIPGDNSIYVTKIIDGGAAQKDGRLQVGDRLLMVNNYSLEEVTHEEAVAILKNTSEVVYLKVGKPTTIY
IL16_4, Q14005, sequence (Q14005 1229-1329): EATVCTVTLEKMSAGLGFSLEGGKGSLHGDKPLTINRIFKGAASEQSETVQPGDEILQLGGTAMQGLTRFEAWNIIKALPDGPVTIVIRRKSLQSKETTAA
PDZRN4_1, Q6ZMN7, sequence (Q6ZMN7 213-318): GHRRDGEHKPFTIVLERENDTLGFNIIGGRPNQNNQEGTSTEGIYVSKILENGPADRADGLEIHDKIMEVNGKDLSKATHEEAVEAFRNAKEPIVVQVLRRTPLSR
LAP2, Q96RT1, sequence (Q96RT1 other isoform, or with tags, fused parts or gaps): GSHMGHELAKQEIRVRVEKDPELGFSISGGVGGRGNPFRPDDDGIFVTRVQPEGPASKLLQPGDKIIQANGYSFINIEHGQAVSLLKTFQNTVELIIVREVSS
MAGI2_2, Q86UL8, sequence (Q86UL8 410-522): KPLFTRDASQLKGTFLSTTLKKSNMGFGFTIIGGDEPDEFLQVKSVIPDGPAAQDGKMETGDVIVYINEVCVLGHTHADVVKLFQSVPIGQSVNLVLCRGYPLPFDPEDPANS
NHERF2_2, Q15599, sequence (Q15599 142-238): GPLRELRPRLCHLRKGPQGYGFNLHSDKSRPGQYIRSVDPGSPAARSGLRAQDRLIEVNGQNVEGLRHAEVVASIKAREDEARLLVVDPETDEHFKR
Inadl_9, Q8NI35, sequence (Q8NI35 1530-1615): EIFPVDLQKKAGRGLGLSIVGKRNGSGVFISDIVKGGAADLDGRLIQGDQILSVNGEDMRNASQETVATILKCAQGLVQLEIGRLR
Inadl_8, Q8NI35, sequence (Q8NI35 1425-1530): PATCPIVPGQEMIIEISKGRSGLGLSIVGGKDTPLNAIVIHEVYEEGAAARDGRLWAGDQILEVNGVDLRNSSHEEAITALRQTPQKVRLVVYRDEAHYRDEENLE
FRMPD4, Q14CM0, sequence (Q14CM0 67-160): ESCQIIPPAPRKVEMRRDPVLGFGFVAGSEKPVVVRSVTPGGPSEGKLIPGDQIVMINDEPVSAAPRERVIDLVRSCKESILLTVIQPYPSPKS

PPRQRSETQV [HPV82-E6, Q9IR59]
below the threshold: FRMPD4, Q14CM0; [1] | GRASP, Q7Z6J2; [1] | APBA1_2, Q02410; [1] | DVL3, Q92997; [1] | HTRA2, O43464; [1] | NHERF3_4, Q5T2W1; [1] | Inadl_8, Q8NI35; [1] | IL16_4, Q14005; [1] | Inadl_9, Q8NI35; [1] | Inadl_10, Q8NI35; [1] | MPP6, Q9NZW5; [1] | NHERF3_3, Q5T2W1; [1] | HTRA4, P83105; [1] | NHERF2_2, Q15599; [1] | CARD11, Q9BXL7; [1] | FRMPD1, Q5SYB0; [1] | PDZD2_2, O15018; [1] | NHERF4_2, Q86UT5; [1]
3.73: MAGI2_3, Q86UL8; [1]
3.72: RHPN1, Q8TCX5; [1]
5.89: MAGI2_2, Q86UL8; [1]
3.84: PDZD7_3, Q9H5P4; [1]
3.45: LAP2, Q96RT1; [1]
4.63: DLG3_3, Q92796; [1]
4.79: DLG2_2, Q15700; [1]
3.83: PDZRN4_1, Q6ZMN7; [1]

SKKNELFSNL [NHERF1, O14745]
3.76: RHPN1, Q8TCX5; [2]
4.38: PDZD2_2, O15018; [2]
below the threshold: FRMPD4, Q14CM0; [2] | GRASP, Q7Z6J2; [2] | DVL3, Q92997; [2] | HTRA2, O43464; [2] | NHERF3_4, Q5T2W1; [2] | Inadl_8, Q8NI35; [2] | IL16_4, Q14005; [2] | Inadl_9, Q8NI35; [2] | Inadl_10, Q8NI35; [2] | MPP6, Q9NZW5; [2] | NHERF3_3, Q5T2W1; [2] | HTRA4, P83105; [2] | DLG2_2, Q15700; [2] | NHERF2_2, Q15599; [2] | DLG3_3, Q92796; [2] | LAP2, Q96RT1; [2] | PDZD7_3, Q9H5P4; [2] | CARD11, Q9BXL7; [2] | MAGI2_3, Q86UL8; [2] | MAGI2_2, Q86UL8; [2] | FRMPD1, Q5SYB0; [2] | PDZRN4_1, Q6ZMN7; [2] | NHERF4_2, Q86UT5; [2]
3.48: APBA1_2, Q02410; [2]
